Laboratory results published in publication PMC9508830.

Molecular target: GAr fused to the N-terminus of p53 (GAr-p53), nascent peptide on polysomes (Epstein-Barr virus | not stated)
Experiment: proximity ligation; PLEA (PLA ELISA): polysomes of cycloheximide-treated H1299 lysates captured on 96-well plates with goat anti-RPL5, increasing amounts of polysomes; in vitro PLA with anti-p53 (rabbit) and anti-NACA (mouse)

Q: How did the fold interaction (PLEA signal) against p53 turn out when “nascent polypeptide-associated complex subunit alpha (NACA), endogenous in H1299 cells (from UniProt Q13765 1-215) (natural protein)” was run?
A: 3 fold
